Substrate in the series: CCCOC(=O)c1cc(O)c(O)c(O)c1
Nature of the series: purified protein. Conditions: standard assay condition. It is filed as biochemical, Aspergillus niger.

B1: rAntan1 (tannase from A. niger FJ0118, Antan1 without signal peptide) (Aspergillus niger CBS 513.88) (protein)
chain: ATPSTLAELCTDSIVKAALPPSEFIQGITIDSDSVTTEVVTNSSVSSEFYPSATINYCNVTFAYSHDGIDGDQVLLEIWLPAPTDFQNRWLSTGGGGYAINSGDQSLPGGVMYGAASGMTDGGFGGFSNNADTAMLLANGTLDYETLYMFAYKAHRELSLIGKALTRNVYGMSDSDKLYAYYQGCSEGGREGWSQVQRFGDEWDGAIIGAPAFRWSFQQTQHLYSNVVEKTLDYYPPPCELDKIVNETIAACDAMDGKVDWVVARTDLCLLDFDISTIEGKPYSCAASRGTPAQNGTVSAKGIEVAKTIINGLHDSQGRRVYFSYQPTAAFDDAETQYNSTTGQWGLDIDQLGGEYIALLVDKNGTTLDSLDGVTYDTLKDWMISGLQEYYSTLQTTWPDLTPFHEAGGKVIHFHGDADFSIPTAASIRYWESVRSIMYPNQDYNSSAEALNEWYRLYTVPGAGHCATNDAMPNGPFPQTNMAVMIDWVENGVVPTTLNATVLQGENEGQNQQLCAWPLRPLWTNNGTTMECVYNQRSIDSWHYDLDAVPMPVY
notes: mature form, predicted 20-residue signal peptide removed; secreted from Pichia pastoris SMD1168 (pPIC9K), DEAE-Sepharose purified; 1725 bp ORF, 575 residues printed
Turning to B1, the Km (as a rule, the substrate concentration at which the rate is half of its maximum) was 73 µM. For the same protein, where the note is “substrate range printed as 0.05–1.0 M”, the kcat (as a rule, the number of substrate molecules converted per active site and unit of time at saturation) came out at 1060 s⁻¹.

These data come from publication PMC7070470, “Thermostable Tannase from Aspergillus Niger and Its Application in the Enzymatic Extraction of Green Tea” (Molecules, 2020).
